Experimental data published in PMC7556843, “The dynamics of linear polyubiquitin” (Science Advances, 2020).

Key:
[1] = molecular target: T1, linear (M1-linked) triubiquitin (UniProt P0CG48 1-76; P0CG48 1-76; P0CG48 1-76); assay: ITC; NEMO titrated into Ub3 or Ub4 in the cell; 298 K; 50 mM sodium phosphate pH 7.0, 50 mM NaCl; triplicate; conditions: both partners purified
T1 construct: ubiquitin, 76-residue unit, first of three joined head to tail (residues 1-76 of the chain); ubiquitin, 76-residue unit, second of three (residues 77-152 of the chain); ubiquitin, 76-residue unit, third of three (residues 153-228 of the chain); Construct was a gift of P. Elliott and D. Komander; no tag or extra residues are told; One polypeptide of three ubiquitin units linked M1 to C-terminus; …

[2] = molecular target: T2, linear (M1-linked) tetraubiquitin (UniProt P0CG48 1-76; P0CG48 1-76; P0CG48 1-76; P0CG48 1-76); assay: as above; conditions: both partners purified
T2 construct: ubiquitin, 76-residue unit, first of four joined head to tail (residues 1-76 of the chain); ubiquitin, 76-residue unit, second of four (residues 77-152 of the chain); ubiquitin, 76-residue unit, third of four (residues 153-228 of the chain); ubiquitin, 76-residue unit, fourth of four (residues 229-304 of the chain); Construct was a gift of P. Elliott and D. Komander; no tag or extra residues are …

[3] = molecular target: T1, linear (M1-linked) triubiquitin; assay: SEC-MALS; SEC (Superdex 200 10/300 GL, 4°C) with static light scattering (right-angle, Viscotek TDA 305, 30°C); about 8 mg/ml; 50 mM tris-HCl, 300 mM NaCl pH 8.0 and 50 mM sodium phosphate, 50 mM NaCl pH 7.0; conditions: both partners purified
[4] = molecular target: T2, linear (M1-linked) tetraubiquitin; assay: as above; conditions: both partners purified
[5] = molecular target: the molecule itself; assay: as above
[6] = molecular target: T1, linear (M1-linked) triubiquitin; assay: SPR; Ub3 and Ub4 immobilised by amine coupling (456 and 721 RU); NEMO injected in a twofold series; 25°C; 50 mM sodium phosphate, 50 mM NaCl, 0.005% Tween 20, pH 7; equilibrium responses fitted to a 1:1 Langmuir isotherm; conditions: both partners purified
[7] = molecular target: T2, linear (M1-linked) tetraubiquitin; assay: as above; conditions: both partners purified

T1 sequence (P0CG48 1-228, one chain of several): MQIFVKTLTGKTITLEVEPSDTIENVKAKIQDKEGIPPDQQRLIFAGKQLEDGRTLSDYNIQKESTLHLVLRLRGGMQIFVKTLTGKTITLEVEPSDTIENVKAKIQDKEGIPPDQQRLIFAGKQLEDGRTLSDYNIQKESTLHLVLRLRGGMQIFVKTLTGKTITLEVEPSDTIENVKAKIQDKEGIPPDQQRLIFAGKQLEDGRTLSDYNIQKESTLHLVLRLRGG
T2 sequence (P0CG48 1-304, one chain of several): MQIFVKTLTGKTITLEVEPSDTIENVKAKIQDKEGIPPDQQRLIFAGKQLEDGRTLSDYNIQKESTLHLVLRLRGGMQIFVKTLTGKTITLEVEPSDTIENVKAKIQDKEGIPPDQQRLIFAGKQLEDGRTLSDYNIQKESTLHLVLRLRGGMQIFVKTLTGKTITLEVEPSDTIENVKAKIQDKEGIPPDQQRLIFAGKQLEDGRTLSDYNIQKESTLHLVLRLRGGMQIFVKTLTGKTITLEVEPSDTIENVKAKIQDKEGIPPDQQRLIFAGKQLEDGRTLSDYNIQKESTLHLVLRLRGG

Kd [1]: 1.6 µM
dH [1]: -4.28 kcal/mol
Kd [2]: 4.1 µM
dH [2]: -4.49 kcal/mol
stoichiometry N [3]: 2 NEMO:Ub3
stoichiometry N [4]: 2 NEMO:Ub4
Kd [6]: 9.6 µM
Kd [7]: 6.4 µM
B1: Human NEMO258-350 C347S (NEMO UBAN domain) (domain or fragment, UniProt Q9Y6K9 258-350, looked up)
chain: MQLEDLKQQLQQAEEALVAKQEVIDKLKEEAEQHKIVMETVPVLKAQADIYKADFQAERQAREKLAEKKELLQEQLEQLQREYSKLKASSQES
notes: NEMO (IKKγ, NF-κB essential modulator), human, residues 258-350 (UBAN domain) with C347S; also called NEMO mutant (C347S); IKKγ; source: expressed and purified as described in Vincendeau et al. (23)
binding result [5]: binds
